In publication PMC9403556 (STAR Protocols, 2022) one finds Kd data, which are given here for one molecule.

The target in the test is T1, human eIF5-mimic protein 1 (h5MP1), wild type, untagged (human, UniProt Q9Y6E2 1-419).
T1 sequence (looked up): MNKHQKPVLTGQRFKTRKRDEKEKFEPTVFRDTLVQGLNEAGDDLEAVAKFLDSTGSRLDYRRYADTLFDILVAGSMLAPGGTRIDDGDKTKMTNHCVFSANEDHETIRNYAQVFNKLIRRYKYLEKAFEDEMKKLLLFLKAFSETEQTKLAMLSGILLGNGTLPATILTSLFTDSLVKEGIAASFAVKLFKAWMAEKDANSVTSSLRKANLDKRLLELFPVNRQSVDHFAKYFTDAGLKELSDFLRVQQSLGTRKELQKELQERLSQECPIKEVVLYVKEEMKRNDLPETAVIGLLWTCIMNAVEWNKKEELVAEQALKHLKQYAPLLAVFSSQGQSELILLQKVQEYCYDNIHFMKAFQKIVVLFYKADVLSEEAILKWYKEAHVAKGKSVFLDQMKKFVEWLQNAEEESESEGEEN
The experiment in a line: ITC.

B1: heIF2β_(53-136), GB1- and His-tags removed (domain or fragment, human, UniProt P20042 53-136, looked up)
chain: DLEADEEDTRKKDASDDLDDLNFFNQKKKKKKTKKIFDIDEAEEGVKDLKIESDVQEPTEPEDDLDIMLGNKKKKKKNVKFPDE
As for B1, binding was characterised by a dissociation constant (Kd) of 5 µM.
